Experimental data published in PMC3507621.

B1: wild type recombinant N-terminal region of PTX3 (N_PTX3) [human] / mouse TSG-6 (tumor necrosis factor-induced protein 6) [mouse] (parent)
chain 1: ENSDDYDLMYVNLDNEIDNGLHPTEDPTPCACGQEHSEWDKLFIMLENSQMRERMLLQATDDVLRGELQRLREELGRLAESLARPCAPGAPAEARLTSALDELLQATRDAGRRLARMEGAEAQRPEEAGRALAAVLEELRQTRADLHAVQGWATG
chain 2: WGFKNGIFHNSIWLEQAAGVYHREARAGRYKLTYAEAKAVCEFEGGRLATYKQLEAARKIGFHVCAAGWMAKGRVGYPIVKPGPNCGFGKTGIIDYGIRLNRSERWDAYCYNPHAKECGGVFTDPKRIFKSPGFPNEYDDNQVCYWHIRLKYGQRIHLSFLDFDLEHDPGCLADYVEIYDSYDDVHGFVGRYCGDELPEDIISTGNVMTLKFLSDASVTAGGFQIKYVTVDPASKSSQAKNTSTTGNKKFLPGRFSHL
B2: wild type recombinant N-terminal region of PTX3 (N_PTX3) [human] / mouse TSG-6 (tumor necrosis factor-induced protein 6) [mouse] (parent)
chain 1: B1 chain 2
chain 2: B1 chain 1

How the values were obtained:
[1] = variants of: B1; experiment: competition ELISA (bPTX3 detected with HRP-conjugated streptavidin); details: with mouse TSG-6 (tumor necrosis factor-induced protein 6) [mouse], wells coated with TSG-6, read off a plot
[2] = variants of: B2; experiment: ELISA; details: with mouse TSG-6 (tumor necrosis factor-induced protein 6) [mouse], pH 7.4, PBS with Ca2+ and Mg2+, read off a plot
[3] = TSG-6 about 0.38 nM (est. from x axis), parent: 0.29
[4] = TSG-6 about 1.6 nM (est. from x axis), parent: 0.91
[5] = TSG-6 about 6.2 nM (est. from x axis), parent: 1.7
[6] = TSG-6 about 26 nM (est. from x axis), parent: 2.2
[7] = TSG-6 about 100 nM (est. from x axis), parent: 2.3

Variant | screen value ([1]; competitor about 0.24 nM (est. from x axis), parent: 99) | screen value ([1]; competitor about 1.2 nM (est. from x axis), parent: 90) | screen value ([1]; competitor about 12 nM (est. from x axis), parent: 82) | screen value ([1]; competitor about 120 nM (est. from x axis), parent: 58) | screen value ([1]; competitor about 1200 nM (est. from x axis), parent: 17) | response [2, 3] | response [2, 4] | response [2, 5] | response [2, 6] | response [2, 7]
chain 1 C30S C32S C86S | 97% | 93% | 84% | 64% | 29% |  |  |  |  | 
chain 2 C30S C32S |  |  |  |  |  | 0.14 O.D. (450nm) | 0.5 O.D. (450nm) | 1.1 O.D. (450nm) | 1.9 O.D. (450nm) | 2.2 O.D. (450nm)
chain 2 C86S |  |  |  |  |  | 0.3 O.D. (450nm) | 0.91 O.D. (450nm) | 1.6 O.D. (450nm) | 2.2 O.D. (450nm) | 2.3 O.D. (450nm)
chain 2 C30S C32S C86S |  |  |  |  |  | 0.31 O.D. (450nm) | 0.91 O.D. (450nm) | 1.7 O.D. (450nm) | 2.2 O.D. (450nm) | 2.2 O.D. (450nm)
